The source of these data is paper PMC6400558 (2019).

To fix the notation:
B1: MBP-tagged Hook2 Hook+CC1 (N427) WT [human] / GST-tagged LIC1 (389–523 aa) [not stated] (parent complex)
chain 1: MSVDKAELCGSLLTWLQTFHVPSPCASPQDLSSGLAVAYVLNQIDPSWFNEAWLQGISEDPGPNWKLKVSNLKMVLRSLVEYSQDVLAHPVSEEHLPDVSLIGEFSDPAELGKLLQLVLGCAISCEKKQDHIQRIMTLEESVQHVVMEAIQELMTKDTPDSLSPETYGNFDSQSRRYYFLSEEAEEGDELQQRCLDLERQLMLLSEEKQSLAQENAGLRERMGRPEGEGTPGLTAKKLLLLQSQLEQLQEENFRLESGREDERLRCAELEREVAELQHRNQALTSLAQEAQALKDEMDELRQSSERAGQLEATLTSCRRRLGELRELRRQVRQLEERNAGHAERTRQLEDELRRAGSLRAQLEAQRRQVQELQGQRQEEAMKAEKWLFECRNLEEKYESVTKEKERLLAERDSLREANEELRCAQLQ
chain 2: TAAGRPVDASPRVPGGSPRTPNRSVSSNVASVSPIPAGSKKIDPNMKAGATSEGVLANFFNSLLSKKTGSPGGPGVSGGSPAGGAGGGSSGLPPSTKKSGQKPVLDVHAELDRITRKPVTVSPTTPTSPTEGEAS

The variants in this test derive from B1. Briefly: GST pull-down, anti-MBP immunoblot, band intensity quantified; n = 3; parent: 0.95; read off a plot.
chain 1 MSVDKAELCGSLLTWLQTFHVPSPCASPQDLSSGLAVAYVLNQIDPSWFNEAWLQGISEDPGPNWKLKVSNLKMVLRSLVEYSQDVLAHPVSEEHLPDVSLIGEFSDPAELGKLLQLVLGCAISCEKKQDHIQRIMTLEESVQHVVMEAAQELMTKDTPDSLSPETYGNFDSQSRRYYFLSEEAEEGDELQQRCLDLERQLMLLSEEKQSLAQENAGLRERMGRPEGEGTPGLTAKKLLLLQSQLEQLQEENFRLESGREDERLRCAELEREVAELQHRNQALTSLAQEAQALKDEMDELRQSSERAGQLEATLTSCRRRLGELRELRRQVRQLEERNAGHAERTRQLEDELRRAGSLRAQLEAQRRQVQELQGQRQEEAMKAEKWLFECRNLEEKYESVTKEKERLLAERDSLREANEELRCAQLQ [chain 1 I150A]: the response is around 0.18 Pulldown/Input.
On to chain 1 MSVDKAELCGSLLTWLQTFHVPSPCASPQDLSSGLAVAYVLNQIDPSWFNEAWLQGISEDPGPNWKLKVSNLKMVLRSLVEYSQDVLAHPVSEEHLPDVSLIGEFSDPAELGKLLQLVLGCAISCEKKQDHIQRIMTLEESVAHVVMEAIQELMTKDTPDSLSPETYGNFDSQSRRYYFLSEEAEEGDELQQRCLDLERQLMLLSEEKQSLAQENAGLRERMGRPEGEGTPGLTAKKLLLLQSQLEQLQEENFRLESGREDERLRCAELEREVAELQHRNQALTSLAQEAQALKDEMDELRQSSERAGQLEATLTSCRRRLGELRELRRQVRQLEERNAGHAERTRQLEDELRRAGSLRAQLEAQRRQVQELQGQRQEEAMKAEKWLFECRNLEEKYESVTKEKERLLAERDSLREANEELRCAQLQ [chain 1 Q143A], for which the response was around 0.22 Pulldown/Input.
